Like-named read-outs stand apart in the source and are kept apart here.
Experiments:
[1] = molecular target: light-harvesting complex II (LHCII) trimer (spinach)
[2] = molecular target: light-harvesting complex II (LHCII) trimer (spinach); remark: listed apart in the source

pairwise LHCII-LHCII interaction energy J [1]: -7.2 kBT | pairwise LHCII-LHCII interaction energy J [2]: -5.4 kBT
Substance: light-harvesting complex II (LHCII) trimer

From publication PMC10745693
